Publication PMC9482650, “Quantitative fragmentomics allow affinity mapping of interactomes” (Nature Communications, 2022)

What follows are binders tested against NHERF4_3, Q86UT5 (assay: holdup assay). Details: plain residues with an end cap or a label only (N-terminal biotin on a linker: ttds).
Parameters: key: below the threshold = too weak to quantify, mostly under pKd 3.1 to 4

Sequence of NHERF4_3, Q86UT5 (Q86UT5 325-412): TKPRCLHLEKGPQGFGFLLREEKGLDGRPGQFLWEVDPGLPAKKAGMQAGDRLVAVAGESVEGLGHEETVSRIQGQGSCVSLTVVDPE

Row | Binder | pKd
1 | SVWLRKETRV [CYSLTR2, Q9NS75] | below the threshold
2 | QSARYRDTEL [TJP2, Q9UDY2] | below the threshold

These binders were tested against O00233 (assay: holdup assay). Details: plain residues with an end cap or a label only (N-terminal biotin on a linker: ttds).
Parameters: key: below the threshold = too weak to quantify, mostly under pKd 3.1 to 4

Row | Binder | pKd
3 | STLTIFETAL [ABCC4, O15439] | below the threshold
4 | PKTPPTDTSV [KIR3DL3, Q8N743] | below the threshold
5 | SVWLRKETRV [CYSLTR2, Q9NS75] | below the threshold
6 | QSARYRDTEL [TJP2, Q9UDY2] | below the threshold

Each binder was assayed against O00560 (assay: holdup assay). Details: plain residues with an end cap or a label only (N-terminal biotin on a linker: ttds).
Parameters: key: below the threshold = too weak to quantify, mostly under pKd 3.1 to 4

Row | Binder | pKd
7 | STLTIFETAL [ABCC4, O15439] | below the threshold
8 | PKTPPTDTSV [KIR3DL3, Q8N743] | below the threshold
9 | SVWLRKETRV [CYSLTR2, Q9NS75] | below the threshold
10 | QSARYRDTEL [TJP2, Q9UDY2] | below the threshold

The binders below were run against O15021 (assay: holdup assay). Details: plain residues with an end cap or a label only (N-terminal biotin on a linker: ttds).
Parameters: key: below the threshold = too weak to quantify, mostly under pKd 3.1 to 4

Row | Binder | pKd
11 | STLTIFETAL [ABCC4, O15439] | below the threshold
12 | PKTPPTDTSV [KIR3DL3, Q8N743] | below the threshold
13 | SVWLRKETRV [CYSLTR2, Q9NS75] | below the threshold
14 | QSARYRDTEL [TJP2, Q9UDY2] | below the threshold

What follows are binders tested against O43166 (assay: holdup assay). Details: plain residues with an end cap or a label only (N-terminal biotin on a linker: ttds).
Parameters: key: below the threshold = too weak to quantify, mostly under pKd 3.1 to 4

Row | Binder | pKd
15 | STLTIFETAL [ABCC4, O15439] | below the threshold
16 | PKTPPTDTSV [KIR3DL3, Q8N743] | below the threshold
17 | SVWLRKETRV [CYSLTR2, Q9NS75] | below the threshold
18 | QSARYRDTEL [TJP2, Q9UDY2] | below the threshold

These binders were tested against O60759 (assay: holdup assay). Details: plain residues with an end cap or a label only (N-terminal biotin on a linker: ttds).
Parameters: key: below the threshold = too weak to quantify, mostly under pKd 3.1 to 4

Row | Binder | pKd
19 | STLTIFETAL [ABCC4, O15439] | below the threshold
20 | PKTPPTDTSV [KIR3DL3, Q8N743] | below the threshold
21 | SVWLRKETRV [CYSLTR2, Q9NS75] | below the threshold
22 | QSARYRDTEL [TJP2, Q9UDY2] | below the threshold

Each binder was assayed against O75970 (assay: holdup assay). Details: plain residues with an end cap or a label only (N-terminal biotin on a linker: ttds).
Parameters: key: below the threshold = too weak to quantify, mostly under pKd 3.1 to 4

Row | Binder | pKd
23 | STLTIFETAL [ABCC4, O15439] | below the threshold
24 | PKTPPTDTSV [KIR3DL3, Q8N743] | below the threshold
25 | SVWLRKETRV [CYSLTR2, Q9NS75] | below the threshold
26 | QSARYRDTEL [TJP2, Q9UDY2] | below the threshold

The binders below were run against Q12923 (assay: holdup assay). Details: plain residues with an end cap or a label only (N-terminal biotin on a linker: ttds).
Parameters: key: below the threshold = too weak to quantify, mostly under pKd 3.1 to 4

Row | Binder | pKd
27 | STLTIFETAL [ABCC4, O15439] | below the threshold
28 | PKTPPTDTSV [KIR3DL3, Q8N743] | below the threshold
29 | SVWLRKETRV [CYSLTR2, Q9NS75] | below the threshold
30 | QSARYRDTEL [TJP2, Q9UDY2] | below the threshold

These binders were tested against Q13009 (assay: holdup assay). Details: plain residues with an end cap or a label only (N-terminal biotin on a linker: ttds).
Parameters: key: below the threshold = too weak to quantify, mostly under pKd 3.1 to 4

Row | Binder | pKd
31 | STLTIFETAL [ABCC4, O15439] | below the threshold
32 | PKTPPTDTSV [KIR3DL3, Q8N743] | below the threshold
33 | SVWLRKETRV [CYSLTR2, Q9NS75] | below the threshold
34 | QSARYRDTEL [TJP2, Q9UDY2] | below the threshold

What follows are binders tested against Q5TCQ9 (assay: holdup assay). Details: plain residues with an end cap or a label only (N-terminal biotin on a linker: ttds).
Parameters: key: below the threshold = too weak to quantify, mostly under pKd 3.1 to 4

Row | Binder | pKd
35 | STLTIFETAL [ABCC4, O15439] | below the threshold
36 | PKTPPTDTSV [KIR3DL3, Q8N743] | below the threshold
37 | SVWLRKETRV [CYSLTR2, Q9NS75] | below the threshold
38 | QSARYRDTEL [TJP2, Q9UDY2] | below the threshold

What follows are binders tested against Q6ZWJ1 (assay: holdup assay). Details: plain residues with an end cap or a label only (N-terminal biotin on a linker: ttds).
Parameters: key: below the threshold = too weak to quantify, mostly under pKd 3.1 to 4

Row | Binder | pKd
39 | STLTIFETAL [ABCC4, O15439] | below the threshold
40 | PKTPPTDTSV [KIR3DL3, Q8N743] | below the threshold
41 | SVWLRKETRV [CYSLTR2, Q9NS75] | below the threshold
42 | QSARYRDTEL [TJP2, Q9UDY2] | below the threshold

What follows are binders tested against Q70Z35 (assay: holdup assay). Details: plain residues with an end cap or a label only (N-terminal biotin on a linker: ttds).
Parameters: key: below the threshold = too weak to quantify, mostly under pKd 3.1 to 4

Row | Binder | pKd
43 | STLTIFETAL [ABCC4, O15439] | below the threshold
44 | PKTPPTDTSV [KIR3DL3, Q8N743] | below the threshold
45 | SVWLRKETRV [CYSLTR2, Q9NS75] | below the threshold
46 | QSARYRDTEL [TJP2, Q9UDY2] | below the threshold

Each binder was assayed against Q8TB45 (assay: holdup assay). Details: plain residues with an end cap or a label only (N-terminal biotin on a linker: ttds).
Parameters: key: below the threshold = too weak to quantify, mostly under pKd 3.1 to 4

Row | Binder | pKd
47 | SVWLRKETRV [CYSLTR2, Q9NS75] | below the threshold

What follows are binders tested against Q8TDM6 (assay: holdup assay). Details: plain residues with an end cap or a label only (N-terminal biotin on a linker: ttds).
Parameters: key: below the threshold = too weak to quantify, mostly under pKd 3.1 to 4

Row | Binder | pKd
48 | SVWLRKETRV [CYSLTR2, Q9NS75] | below the threshold

What follows are binders tested against Q8TEW0 (assay: holdup assay). Details: plain residues with an end cap or a label only (N-terminal biotin on a linker: ttds).
Parameters: key: below the threshold = too weak to quantify, mostly under pKd 3.1 to 4

Row | Binder | pKd
49 | STLTIFETAL [ABCC4, O15439] | below the threshold
50 | PKTPPTDTSV [KIR3DL3, Q8N743] | below the threshold
51 | SVWLRKETRV [CYSLTR2, Q9NS75] | below the threshold
52 | QSARYRDTEL [TJP2, Q9UDY2] | below the threshold

What follows are binders tested against Q92614 (assay: holdup assay). Details: plain residues with an end cap or a label only (N-terminal biotin on a linker: ttds).
Parameters: key: below the threshold = too weak to quantify, mostly under pKd 3.1 to 4

Row | Binder | pKd
53 | STLTIFETAL [ABCC4, O15439] | below the threshold
54 | PKTPPTDTSV [KIR3DL3, Q8N743] | below the threshold
55 | SVWLRKETRV [CYSLTR2, Q9NS75] | below the threshold
56 | QSARYRDTEL [TJP2, Q9UDY2] | below the threshold

What follows are binders tested against Q96FS4 (assay: holdup assay). Details: plain residues with an end cap or a label only (N-terminal biotin on a linker: ttds).
Parameters: key: below the threshold = too weak to quantify, mostly under pKd 3.1 to 4

Row | Binder | pKd
57 | STLTIFETAL [ABCC4, O15439] | below the threshold
58 | PKTPPTDTSV [KIR3DL3, Q8N743] | below the threshold
59 | SVWLRKETRV [CYSLTR2, Q9NS75] | below the threshold
60 | QSARYRDTEL [TJP2, Q9UDY2] | below the threshold

What follows are binders tested against Q96HC4 (assay: holdup assay). Details: plain residues with an end cap or a label only (N-terminal biotin on a linker: ttds).
Parameters: key: below the threshold = too weak to quantify, mostly under pKd 3.1 to 4

Row | Binder | pKd
61 | STLTIFETAL [ABCC4, O15439] | below the threshold
62 | PKTPPTDTSV [KIR3DL3, Q8N743] | below the threshold
63 | SVWLRKETRV [CYSLTR2, Q9NS75] | below the threshold
64 | QSARYRDTEL [TJP2, Q9UDY2] | below the threshold

Each binder was assayed against Q96JB8 (assay: holdup assay). Details: plain residues with an end cap or a label only (N-terminal biotin on a linker: ttds).
Parameters: key: below the threshold = too weak to quantify, mostly under pKd 3.1 to 4

Row | Binder | pKd
65 | STLTIFETAL [ABCC4, O15439] | below the threshold
66 | PKTPPTDTSV [KIR3DL3, Q8N743] | below the threshold
67 | SVWLRKETRV [CYSLTR2, Q9NS75] | below the threshold
68 | QSARYRDTEL [TJP2, Q9UDY2] | below the threshold

The binders below were run against Q96JY6 (assay: holdup assay). Details: plain residues with an end cap or a label only (N-terminal biotin on a linker: ttds).
Parameters: key: below the threshold = too weak to quantify, mostly under pKd 3.1 to 4

Row | Binder | pKd
69 | STLTIFETAL [ABCC4, O15439] | below the threshold
70 | PKTPPTDTSV [KIR3DL3, Q8N743] | below the threshold
71 | SVWLRKETRV [CYSLTR2, Q9NS75] | below the threshold
72 | QSARYRDTEL [TJP2, Q9UDY2] | below the threshold

What follows are binders tested against Q96SB3 (assay: holdup assay). Details: plain residues with an end cap or a label only (N-terminal biotin on a linker: ttds).
Parameters: key: below the threshold = too weak to quantify, mostly under pKd 3.1 to 4

Row | Binder | pKd
73 | STLTIFETAL [ABCC4, O15439] | below the threshold
74 | PKTPPTDTSV [KIR3DL3, Q8N743] | below the threshold
75 | SVWLRKETRV [CYSLTR2, Q9NS75] | below the threshold
76 | QSARYRDTEL [TJP2, Q9UDY2] | below the threshold

Each binder was assayed against Q9C0E4 (assay: holdup assay). Details: plain residues with an end cap or a label only (N-terminal biotin on a linker: ttds).
Parameters: key: below the threshold = too weak to quantify, mostly under pKd 3.1 to 4

Row | Binder | pKd
77 | STLTIFETAL [ABCC4, O15439] | below the threshold
78 | PKTPPTDTSV [KIR3DL3, Q8N743] | below the threshold
79 | SVWLRKETRV [CYSLTR2, Q9NS75] | below the threshold
80 | QSARYRDTEL [TJP2, Q9UDY2] | below the threshold

These binders were tested against Q9H190 (assay: holdup assay). Details: plain residues with an end cap or a label only (N-terminal biotin on a linker: ttds).
Parameters: key: below the threshold = too weak to quantify, mostly under pKd 3.1 to 4

Row | Binder | pKd
81 | STLTIFETAL [ABCC4, O15439] | below the threshold
82 | PKTPPTDTSV [KIR3DL3, Q8N743] | below the threshold
83 | SVWLRKETRV [CYSLTR2, Q9NS75] | below the threshold
84 | QSARYRDTEL [TJP2, Q9UDY2] | below the threshold

These binders were tested against Q9UDY2 (assay: holdup assay). Details: plain residues with an end cap or a label only (N-terminal biotin on a linker: ttds).
Parameters: key: below the threshold = too weak to quantify, mostly under pKd 3.1 to 4

Row | Binder | pKd
85 | STLTIFETAL [ABCC4, O15439] | below the threshold
86 | PKTPPTDTSV [KIR3DL3, Q8N743] | below the threshold
87 | SVWLRKETRV [CYSLTR2, Q9NS75] | below the threshold
88 | QSARYRDTEL [TJP2, Q9UDY2] | below the threshold

The binders below were run against Q9ULJ8 (assay: holdup assay). Details: plain residues with an end cap or a label only (N-terminal biotin on a linker: ttds).
Parameters: key: below the threshold = too weak to quantify, mostly under pKd 3.1 to 4

Row | Binder | pKd
89 | STLTIFETAL [ABCC4, O15439] | below the threshold
90 | PKTPPTDTSV [KIR3DL3, Q8N743] | below the threshold
91 | SVWLRKETRV [CYSLTR2, Q9NS75] | below the threshold
92 | QSARYRDTEL [TJP2, Q9UDY2] | below the threshold

The binders below were run against Q9UMS6 (assay: holdup assay). Details: plain residues with an end cap or a label only (N-terminal biotin on a linker: ttds).
Parameters: key: below the threshold = too weak to quantify, mostly under pKd 3.1 to 4

Row | Binder | pKd
93 | STLTIFETAL [ABCC4, O15439] | below the threshold
94 | PKTPPTDTSV [KIR3DL3, Q8N743] | below the threshold
95 | SVWLRKETRV [CYSLTR2, Q9NS75] | below the threshold
96 | QSARYRDTEL [TJP2, Q9UDY2] | below the threshold

The binders below were run against Q9Y3R0 (assay: holdup assay). Details: plain residues with an end cap or a label only (N-terminal biotin on a linker: ttds).
Parameters: key: below the threshold = too weak to quantify, mostly under pKd 3.1 to 4

Row | Binder | pKd
97 | STLTIFETAL [ABCC4, O15439] | below the threshold
98 | PKTPPTDTSV [KIR3DL3, Q8N743] | below the threshold
99 | SVWLRKETRV [CYSLTR2, Q9NS75] | below the threshold
100 | QSARYRDTEL [TJP2, Q9UDY2] | below the threshold
